According to US20170283509A1 (University of Texas, published 2017):
Blank lines part the entries; values can stand above or below the binder they belong to.

B3: Anterior Gradient 2 (AGR2), endogenous protein from PDAC cell lysate (SU86.86) (ligand)
chain: RDTTVKPGAKKDTKDSRPKLPQTLSRGWGDQLIWTQTYEEALYKSKTSNKPLMIIHHLDECPHSQALKKVFAENKEIQKLAEQFVLLNLVYETTDKHLSPDGQYVPRIMFVDPSLTVRADITGRYSNRLYAYEPADTALLLDNMKKALKLLKTEL
notes: Endogenous AGR2 of human pancreatic cancer cell lysates, used in IP and western blot; also called hAG-2; Gob-4

Columns and labels:
[1] = molecular target: B3; assay: western blot (FIG. 5A)
[2] = molecular target: T1, human recombinant AGR2 (rAGR2) (ab64013, AbCam) (human, UniProt O95994 21-175, limits assumed); assay: western blot (FIG. 5A)
T1 construct: also called extracellular AGR2
T1 sequence: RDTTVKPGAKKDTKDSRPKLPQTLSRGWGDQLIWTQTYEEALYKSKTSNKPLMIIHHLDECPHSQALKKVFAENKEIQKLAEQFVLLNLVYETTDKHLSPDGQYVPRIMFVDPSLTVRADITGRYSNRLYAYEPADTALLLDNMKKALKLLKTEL

[3] = molecular target: T2, AGR2 antigenic peptide (CIHHLDESPHSQALKKVFAENKEIQKLAEQ; SEQ ID NO: 3) (human); assay: ELISA, antigenic peptide (0.5 ug) coated, probed with purified Ab (FIG. 11C)
T2 peptide: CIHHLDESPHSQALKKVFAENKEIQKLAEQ
Procedure: (§1) FIGS. 11A-D. Monoclonal antibodies developed bind respectively to AGR2 and C4.4A proteins and blocked their functions. From the endogenous lysate (SU86.86/Panc-1), AGR2 (18 kD) and C4.4A (50 kD) were identified by a panel of mAbs. […] Extra bands identified with the endogenous protein were re-confirmed with the recombinant protein. For apoptosis studies, AsPC-1 cells were treated without or with Gem (0.5 μM) and rAGR2 (100 nM) and with purified (A) AGR2 and (B) C4.4A Abs (1 μM). Commercially available Abs served as control. […] Horizontal line represents median apoptotic value. Data shown are mean±SE for 3 experiments (*p<0.05). (C,D) Binding assays were conducted with purified (C) AGR2 and (D) C4.4A Abs as selected from the apoptosis assay as having high blocking efficiency. ELISA assays were conducted by coating antigenic peptide (0.5 μg) and probed with respective purified Abs. Data shown are mean±SE for 3 experiments (*p <0.05). Based on high specificity and binding, clone 28B for AGR2 and 1A for C4.4A were selected. Purified Abs were also run on 4-20% gradient gel to check for the presence of heavy (50 kD) and light chains (25 kD).

[4] = molecular target: T3, C4.4A (LYPD3), endogenous protein of PDAC cells (human, UniProt O95274 31-326); assay: western blot (FIG. 5A)
T3 construct: On PDAC cells in the functional assays
T3 sequence: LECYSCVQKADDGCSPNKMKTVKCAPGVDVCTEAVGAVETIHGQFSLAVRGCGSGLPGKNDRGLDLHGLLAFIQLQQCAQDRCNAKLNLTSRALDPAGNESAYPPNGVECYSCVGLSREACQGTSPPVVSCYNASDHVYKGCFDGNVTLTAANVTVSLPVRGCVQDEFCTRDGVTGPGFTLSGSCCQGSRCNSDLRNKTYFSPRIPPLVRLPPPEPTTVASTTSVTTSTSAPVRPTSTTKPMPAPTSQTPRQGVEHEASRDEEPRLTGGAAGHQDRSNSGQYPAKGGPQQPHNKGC

[5] = molecular target: T4, C4.4A antigenic peptide (CPVRPTSTTKPMPAPTSQTPRQGVEHEASRDEEPRL; SEQ ID NO: 4) (human); assay: ELISA, antigenic peptide (0.5 ug) coated, probed with purified Ab (FIG. 11D)
T4 peptide: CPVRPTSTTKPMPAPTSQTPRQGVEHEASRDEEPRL
Procedure: as §1

[6] = molecular target: T5, dystroglycan-1 (DAG-1) (UniProt Q14118 30-895, limits assumed); assay: co-immunoprecipitation from SU86.86 lysate with commercial anti-AGR2 antibody, western blot
T5 construct: Endogenous protein of a PDAC cell lysate; also called Dystoglycan-1
T5 sequence (looked up): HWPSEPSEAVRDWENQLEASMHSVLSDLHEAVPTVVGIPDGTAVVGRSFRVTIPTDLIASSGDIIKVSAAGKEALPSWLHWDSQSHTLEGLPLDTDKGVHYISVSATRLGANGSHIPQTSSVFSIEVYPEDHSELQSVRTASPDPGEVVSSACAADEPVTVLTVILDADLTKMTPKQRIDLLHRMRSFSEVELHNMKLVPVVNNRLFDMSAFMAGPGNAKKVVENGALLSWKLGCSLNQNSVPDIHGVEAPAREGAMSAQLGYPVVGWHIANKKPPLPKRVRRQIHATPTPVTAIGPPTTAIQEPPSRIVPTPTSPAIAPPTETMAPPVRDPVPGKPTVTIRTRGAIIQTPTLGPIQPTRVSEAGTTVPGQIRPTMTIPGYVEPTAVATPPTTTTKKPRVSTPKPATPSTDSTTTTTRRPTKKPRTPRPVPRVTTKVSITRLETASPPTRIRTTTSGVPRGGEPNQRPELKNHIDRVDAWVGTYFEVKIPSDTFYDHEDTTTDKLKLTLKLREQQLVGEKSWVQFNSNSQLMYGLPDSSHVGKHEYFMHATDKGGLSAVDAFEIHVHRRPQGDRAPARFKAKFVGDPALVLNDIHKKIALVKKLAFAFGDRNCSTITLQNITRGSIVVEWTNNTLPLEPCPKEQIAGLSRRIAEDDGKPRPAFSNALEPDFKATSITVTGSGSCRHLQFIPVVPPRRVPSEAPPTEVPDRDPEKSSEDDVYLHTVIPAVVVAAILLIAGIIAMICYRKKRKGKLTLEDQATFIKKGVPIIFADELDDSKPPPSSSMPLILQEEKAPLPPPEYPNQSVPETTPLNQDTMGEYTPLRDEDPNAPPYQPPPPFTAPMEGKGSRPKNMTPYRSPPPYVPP

[7] = molecular target: T3, C4.4A (LYPD3), endogenous protein of …; assay: as above

binding result [1]: binds | binding result [2]: binds | binding result [3]: binds
B1: 163-28B-1 monoclonal antibody (antibody, V domains shown)
VH: QIQLVQSGPELKKPGETVKISCKASGYTFTNYGMNWVKQAPGKGLKWMGWINTDTGKPTYTEEFKGRFAFSLATSASTAYLQINNLRNEDTATYFCGRVTADSMDYWGQGTSVTVSS
VL: DVVMTQTPLSLPVSLGDQASISCRSSQSLVHSNGNIYLHWFLQKPGQSPKLLIYKVSNRFSGVPDRFSGSGSGTDFTLKISRVEAEDLGVYFCSQSTHVPLTFGAGTKLELK
notes: also called AGR2 mAb; clone 28B

binding result [4]: binds | binding result [5]: binds
B2: 162-1A-1 monoclonal antibody (antibody, V domains shown)
VH: EVMLVESGGGLVKPGGSLKLSCAASGFTFSSYTMSWVRQTPEKRLEWVASISSGGGNTYYADSVKGRFTMSRDNAKNNLYLQMSSLRSEDTALYYCARSYYYGISYDTYWGQGTLVTVSA
VL: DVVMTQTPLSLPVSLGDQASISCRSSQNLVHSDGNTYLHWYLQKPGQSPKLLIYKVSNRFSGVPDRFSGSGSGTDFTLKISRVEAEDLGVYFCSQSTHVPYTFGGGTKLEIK
notes: also called C4.4A mAb; clone 1A

Binder: B3
binding result [6]: no binding | binding result [7]: binds
